Patent publication US20240279618A1, “RECEPTOR TYROSINE KINASE AGONIST, COMPOSITION FOR CELL CULTURE MEDIUM, AND […] MAINTENANCE COMPOSITION” (SEKISUI CHEMICAL CO., LTD., priority 2021, published 2024)

T1: FGFR1-Fc (Homo sapiens, UniProt P11362)
T1 construct: each consisting of an extracellular region of FGFR1; purchased R & D Systems 661-FR
T1 sequence (P11362 22-285 isoform P11362-14 limits assumed): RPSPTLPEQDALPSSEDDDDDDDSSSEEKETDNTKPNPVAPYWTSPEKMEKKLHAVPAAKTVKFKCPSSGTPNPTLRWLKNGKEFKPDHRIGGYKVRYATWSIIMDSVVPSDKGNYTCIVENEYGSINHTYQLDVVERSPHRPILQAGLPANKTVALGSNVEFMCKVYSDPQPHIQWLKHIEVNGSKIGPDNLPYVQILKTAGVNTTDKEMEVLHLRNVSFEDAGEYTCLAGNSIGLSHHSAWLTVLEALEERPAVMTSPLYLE

B1: VHH Clone #1: alpaca-derived VHH single-domain antibody (monomer) binding FGFR1, amino acid sequence SEQ ID NO: 17 (protein)
VHH: QLQLVESGGGSVQAGGSLRLSCAASRSLSRFNVWTWYRQAPVKQRELVASITKSGDTNYAESVKGRFIISRDDDKNTVYLQMNNLKSEDTGIYYCAGSYYSGSYLYPSPGGFSVWGQGTQVTVSS
modifications: VHH_Clone_#1
B2: #1-L4-#1: dimer of VHH #1 with linker L4 (GSEGKSSGSGSESKST), SEQ ID NO: 23 (protein)
VHH: QLQLVESGGGSVQAGGSLRLSCAASRSLSRFNVWTWYRQAPVKQRELVASITKSGDTNYAESVKGRFIISRDDDKNTVYLQMNNLKSEDTGIYYCAGSYYSGSYLYPSPGGFSVWGQGTQVTVSSGSEGKSSGSGSESKSTQLQLVESGGGSVQAGGSLRLSCAASRSLSRFNVWTWYRQAPVKQRELVASITKSGDTNYAESVKGRFIISRDDDKNTVYLQMNNLKSEDTGIYYCAGSYYSGSYLYPSPGGFSVWGQGTQVTVSS
modifications: #1-L4-#1
B3: VHH Clone #2: alpaca-derived VHH single-domain antibody (monomer) binding FGFR1, amino acid sequence SEQ ID NO: 18 (protein)
VHH: QVQLVESGGGLVQAGGSLRLSCAVPGSIFRFNTMGWYRQPPGKQRELVAQMSRGGITKYGDSVKGRFTITRDNAKNTVHLQMNSLKPEDTAVYYCAGSYYSGSYYYPSPQGFSVWGQGTQVTVSP
modifications: VHH_Clone_#2

Key:
[1] = test system: human bone marrow-derived MSC; experiment: MSC: evaluation of bone differentiation induction (Alizarin Red); type: cell-based; details: MSC after 3 passages with 20 ng/ml additive, 14 days induction
Description: A third passage was performed in a CellBIND® 24-well transparent multi-well plate, and then at a time of reaching 80% to 90% confluence, medium exchange was performed in MesenCult Stem Cell Osteogenic Differentiation Medium (PromoCell, C/N: C-28013) which is a medium for differentiation induction. Furthermore, for the cells as a negative control, D-MEM (10% FBS or 20% FBS) which is a culture medium was used for the medium exchange. The medium exchange was carried out every 2 to 4 days.
After 14 days from seeding, a 4% paraformaldehyde/phosphate buffer solution was added thereto at 500 μL/well, and the cells were left to stand for 2 hours or longer. After the immobilization, purified water was added thereto at 500 μL/well. 500 μL of an Alizarin Red solution (PG Research Co., Ltd., ARD-SET) was added to each well, which was left to stand at room temperature for 30 minutes. The Alizarin Red solution was removed, and washing was performed three times or more with purified water until the washing water became transparent. The water was completely removed, and the coating film was dried, and observed with a microscope to acquire an image. 500 μL of a calcifide nodule dissolution solution (PG Research Co., Ltd., ARD-SET) was added into the well and distributed for 10 minutes to elute the dye. 100 μL of the eluate was transferred to a 96-well plate and the absorbance at 450 nm was measured. […]

[2] = test system: mouse fibroblast cell line NIH/3T3; experiment: Promotion of fibroblast growth by VHH (homodimer), cell growth assay; type: cell-based; details: NIH/3T3, serum-free, 2 days, 2-fold dilution series, 4-parameter fit; read-out: EC50 of the growth of cultured fibroblasts
Description: A mouse fibroblast cell line NIH/3T3 was used as a fibroblast. A mouse fibroblast cell line NIH/3T3 was obtained from ECACC through a domestic agent, subjected to extended culture, then cryopreserved at −80° C. using CellBanker1 plus (manufactured by ZENOAQ), and used. […]
The cell growth assay for bFGF was performed according to the following procedure. […] The plate was further left to stand for 8 minutes, and then the luminescence in each well was measured with a Synergy HTX plate reader (manufactured by BioTek) with a sensitivity set (Gain) of 200 and a measurement time of 1 s/well. […]
The measurement was performed at three points at each concentration of the test substance, and the conditions were set such that for the measurement at a single concentration, 100 ng/mL of bFGF was set as a positive control and a condition of no addition was set as a negative control. […] The EC50 measurement data were fitted to 4-parameter fit according to an ordinary method by control software attached to a plate reader, and an EC50 value was calculated.

FGFR1-Fc = target: T1, FGFR1-Fc; experiment: Affinity measurement of VHH (monomer) by surface plasmon resonance (SPR); details: 1:1 binding model; for ka: 25° C.; for Kd: Biacore T200, 25° C., read-out: equilibrium dissociation constant (KD)
Description: Affinity measurement of VHH (monomer) was performed by a surface plasmon resonance (SPR) method.
The binding activity of VHH Clone #1 or VHH Clone #2 immobilized on Series S Sensor Chip CAP (manufactured by Cytiva) with respect to FGFR1-Fc was measured using Biacore (registered trademark) T200 (manufactured by Cytiva). Measurement was performed by CAP Single-cycle Kinetics. The temperature was set to 25° C. As a running buffer, 10 mM HEPES (pH 7.4) (Cytiva) including HBS-EP+(150 mM NaCl, 0.5 mM EDTA, and 0.05% surfactant P20) was used. The measurement order for each run is as follows.
1) Immobilization of biotinylated FGFR1-Fc: The flow rate was set to […], Biotin CAPture Reagent (Cytiva) was added thereto for 300 seconds, then the flow rate was set to […], and an FGFR1-Fc solution diluted with a running buffer was added thereto for 120 seconds to immobilize 140 RU. Here, the “resonance unit (RU)” is a unit used in the above-described Biacore, and a change of an SPR angle of 0.1° is defined as 1,000 RU.
2) Measurement of binding activity: The flow rate was set to 30 μL/mL, and VHH Clone #1 or VHH Clone #2 each diluted to 1.85 nM, 5.56 nM, 16.67 nM, or 50 nM, using a running buffer, was allowed to have an association time set to 120 seconds for binding and a dissociation time set to 600 seconds for interaction.
3) Regeneration of sensor chip surface: The flow rate was set to 10 μL/mL, a solution in which Reaneration stock 1 and Regeneration stock 2 (manufactured by Cytiva) were mixed at the ratio of 3:1 was added thereto for 120 seconds to extract the immobilized VHH. Next, analysis was performed with a 1:1 binding model using Biacore T200 Evaluation (software version 2.0, manufactured by Cytiva), and the binding activity was calculated.

Molecule	bone differentiation (Alizarin Red) [1]	EC50 [2] [nM]	ka (FGFR1-Fc) [M⁻¹ s⁻¹]	Kd (FGFR1-Fc) [nM]
FGF2: fibroblast growth factor (basic), human, recombinant (154aa), positive control; SEQ ID NO: 58 [reference compound]	Differentiation was similarly recognized	5.1	–	–
B1	–	–	8.19e+06	1.74
B2	Differentiation was similarly recognized	11.6	–	–
B3	–	–	1.11e+06	1.02
